# In the RNAGym collection of RNA variant scans (doi:10.1073/pnas.2313332121):
# B1: TPR t1 (parent)
# chain: GACCAAUCUGCCCUCAGAGCUCGAGAACAUCUUCGGAUGCAGAGGAGGCAGGCUUCGGUGGCGCGAUAGCGCCAACGUCCUCAACCUCCAAUGCAUCCCACCACAUGAUGAUGCCUGAAGAGCCUUGGUUUUUUG
# Variants of: B1
# Assay: polymerase ribozyme fitness, log enrichment relative to wild type (log ratio); higher = more active; in vitro selection for triplet polymerase activity
# In short: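 To select mutant libraries of each subunit of a heterodimeric triplet polymerase ribozyme, built by PCR and transcribed, each was annealed with a biotinylated primer, partner subunit and triplets, then incubated frozen at −7 °C. Extended constructs were gel-excised, captured on streptavidin beads and amplified by RT-PCR, in one round carried out in triplicate. Illumina sequencing of input and output libraries kept genotypes with ≥10 input reads and ≥1 read per output. Fitness is the base-2 logarithm of genotype enrichment relative to wild-type enrichment, from inverse-variance-weighted replicate averages.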
row,Variant,polymerase ribozyme fitness (log ratio)
1,C70G G120A,-1.34
2,C12U G63C,-0.399
3,C34U G61U,-3.87
4,C12G C13A G36A G47C C86U C114G,-6.13
5,C3G G36U A83U,-3.46
6,G71U G120U,-0.136
7,C97U C123A,0.00246
8,C8A C49U A74C U78C C85A A91U C94U,-3.74
9,U7A C11G U55A,0.0928
10,C70U C82U,-1.59
11,G39A G60A,-0.734
12,G69A C72U,-1.06
13,C11G G69A,-2.73
14,A26U C70U C114U,-7.55
15,C20G U54G C73A C89G A100C,-5.53
16,G71U U78A C80U C114G,-2.44
17,U9G A121G U131A,1.98
18,G39C C73A A74U,-0.844
19,U81A A111U,-5.01
20,U33G G36A A111U,-7.33
21,A5G C49G,-1.85
22,C12A G120A,0.0228
23,A68U C72U C82A G93C C115U G122A,-7.25
24,A6G C12A A46U C53A C56A,-1.28

row,Variant,polymerase ribozyme fitness (log ratio)
1,G51U G60A C123U,-1.47
2,G44U A46C A95G,-3.59
3,G47C G77U A100U,-1.79
4,C3G U9A C72A G107U,-6.54
5,U59G C88U,0.0468
6,C72G U81C,-1.12
7,U7C A27U G36C G57A A74U,-4.85
8,C4A U78A C124G,1.08
9,G17U U106A,-2.49
10,C56G A66G C88U C115A,-1.71
11,G17A G61A C64U C73U A75C,-4.03
12,U78C U106G,-1.09
13,G63A C88U A118C,-3.02
14,G48C C49A A50G G52C C53U C86G C94U C114A,-3.63
15,G48C G63C,-2.72
16,A27C G39A C62A C124G,-4.04
17,U14A U30A A66U G69U U92G C94A G117C,-6.34
18,C12U A66U U78A U87C,-0.338
19,G10C C49G U55G C94A,-3.2
20,G61U A84G G93U G120U,-0.773
21,C64U C89U,-0.57
22,A5G U59G G63U C73G A111C,-6
23,A2C G71C C99A A105U A111G,-6.44
24,C11U G58A U126G,-2.59

row,Variant,polymerase ribozyme fitness (log ratio)
1,G42U A100C U116C,-4.27
2,C70U A118U,0.0135
3,G42A G44C A46U G71U A111G G120A,-3.41
4,A2G A91U U96G G120U,-2.53
5,G69U G120U U132C,1.03
6,C64G C114U,-6.35
7,G42U G45A,-1.25
8,G69U C97G,-3.33
9,G69U C97U,0.163
10,A18G A105G U112C G117C U132A,-3.97
11,U78A C94A,-0.841
12,A84U U112A,0.956
13,G35C C53U C94U A121C,-3.49
14,G35U G61U C94U C124U,-4.83
15,U9A G77U,1.05
16,U21C G63C,-0.656
17,C13U G51A C56G C72A U78G C89U,-0.967
18,C13A A105U,-3.91
19,C64U U112A,0.346
20,A5U A103C G110A G113C,-5.8
21,C49U C56A U109A G117U,-5.98
22,C34G A50G,-6.59
23,C73A G135U,-1.25
24,C72G C101A C114U,-3.4

row,Variant,polymerase ribozyme fitness (log ratio)
1,G51C G135U,-4.93
2,A108C C123A,-4.12
3,C11U C53G,-0.654
4,A43U G135U,-0.971
5,C73G G77U U125G U133G,-1.69
6,G60A C80G,-4.53
7,C82A A84C G110C,-4.7
8,C53G G113U,-2.22
9,C15U A111C U130A,-1.29
10,C62U C86G,-0.606
11,G48C G61A A83U U87A G128U,-3.32
12,C11G G113C,-1.3
13,A41U G42C G60U,-2.24
14,U9C C15U G42C,-0.305
15,C12A C31U A83C,-5.06
16,C15A C28G,-4.4
17,U87A C104G A111U,-3.77
18,C15U G128C,-3.18
19,C28G C94A,-4.49
20,C28G C70A A90G G117U,-5.76
21,G19U C88U,-3.2
22,G61U C124U,1.52
23,C11A U96A,-2.53
24,G58A G60A A68G A100U C115A,-5.02

row,Variant,polymerase ribozyme fitness (log ratio)
1,C11G G122U,0.995
2,U9G C12G A91C G127C U129A,-2.32
3,C15A C62G U92C A121U,-4.25
4,U14G A75U C94U U109C G127C U133G,-4.46
5,G69U G117C U130C,-2.79
6,A46C C53A G60U C102U,-3.11
7,U112A G122U U129C,0.27
8,C12U C72A C85A C94G A111C A119G U125A U133G,-4.02
9,C12A A46U C62U C98G C115G U132G,-6.35
10,C56G C115U,-1.4
11,C11U A43U C53G G120A,-1.5
12,A41C C64G,-6.49
13,U7A G36U G45U C86U,-3.34
14,G71C A84U C94U,-1.84
15,G10C G61A U96A,-0.958
16,C11U C85A,-2.42
17,C3U C12A U21C G36A G63U,-3.34
18,G51U C104A U133G,-5.02
19,G10U A43C C76U A90C C115A,-2.83
20,G71U G77U C89A,-2.84
21,A27U G63A,-4.36
22,U54C G57C C72G U112C,0.604
23,A6C C73U C89U G113A,-2.7
24,G61A C97G,-3.34

row,Variant,polymerase ribozyme fitness (log ratio)
1,C12U G60U A90G C99U,-2.17
2,C4U C53U G69A U78A C86U,-3.99
3,G69A C72U A111C U131A,-3.01
4,G45U C53A C72A C89G,-1.62
5,C13U G19C C40U C72U C98A G110U,-8.2
6,G47U U106C,-1.89
7,A26U G63U,-3.98
8,A29C A66G G120A,-2.9
9,A16U A83U U112G C115A,-4.6
10,G39A G69U C79A G127A,-2.91
11,C13U A68G C73U U112G,-3.26
12,U33A A68U,-7.2
13,C72U C85A A105U,-3.17
14,C4U C49U A66G,-2.3
15,C53G U125C,-2.29
16,G19C G44C C70A G93C C124G,-5.3
17,C12U C123G,2.68
18,C73A U92A,-2.45
19,C40A G60C,-3.13
20,C34U C40U U54C,-4.99
21,G61C U133A,-1.7
22,C40U G63C C115A G135U,-1.95
23,A84U G113A U132C G135A,-1.31
24,C40U C56G C88G G93A,-2.89

row,Variant,polymerase ribozyme fitness (log ratio)
1,C49A C73G,-1.88
2,C73A G93A,-1.04
3,A41U G57U C82U,-1.52
4,A74U C80G U112A,-5.78
5,C82U A119U,-0.592
6,G60C U112G C124A,-0.118
7,C3G C49G C72U A91C G128A U130G,-3.78
8,C72G U106A U129A,-1.25
9,C72U A100U,-0.925
10,C12A A50U C70A,-3.58
11,G17A A74U,-4.06
12,C82G A119U,-0.606
13,A29U U112A,-0.754
14,G44U C72G U78G C82G,-2.66
15,U7C G42C C72A C88U C115U,-1.49
16,G23U A26C A43U G93A G117C,-7.04
17,C8G C12U G51A U129G,-3.08
18,G61U C97G,-4.15
19,U55G C72U U87C G107U,-4.49
20,A41G U55A G58C G120U,-0.997
21,A37U U78C,-0.461
22,U14G A91C C97U,-4.05
23,G45C G51A,-3.29
